One block for each molecule: values may come before it.
Assays:
[1] = molecular target: commercially available anti-Stat3 antibody (Abcam, Cambridge, Mass.); test: ELISA, antibody coated at 1 µg/mL, secondary antibody 1:5,000, Experiment 3
[2] = molecular target: human KRAS (normal human KRAS, full protein) (human, UniProt P01116-2 1-188, limits assumed); test: SPR, Biacore 3000
[3] = molecular target: endogenous STAT3 of the murine 4T1 cell line (murine, UniProt P42227 2-770); test: immunoprecipitation from 4T1 lysate, Western blot
Sequence of endogenous STAT3 of the murine 4T1 cell line (P42227 2-770 limits assumed): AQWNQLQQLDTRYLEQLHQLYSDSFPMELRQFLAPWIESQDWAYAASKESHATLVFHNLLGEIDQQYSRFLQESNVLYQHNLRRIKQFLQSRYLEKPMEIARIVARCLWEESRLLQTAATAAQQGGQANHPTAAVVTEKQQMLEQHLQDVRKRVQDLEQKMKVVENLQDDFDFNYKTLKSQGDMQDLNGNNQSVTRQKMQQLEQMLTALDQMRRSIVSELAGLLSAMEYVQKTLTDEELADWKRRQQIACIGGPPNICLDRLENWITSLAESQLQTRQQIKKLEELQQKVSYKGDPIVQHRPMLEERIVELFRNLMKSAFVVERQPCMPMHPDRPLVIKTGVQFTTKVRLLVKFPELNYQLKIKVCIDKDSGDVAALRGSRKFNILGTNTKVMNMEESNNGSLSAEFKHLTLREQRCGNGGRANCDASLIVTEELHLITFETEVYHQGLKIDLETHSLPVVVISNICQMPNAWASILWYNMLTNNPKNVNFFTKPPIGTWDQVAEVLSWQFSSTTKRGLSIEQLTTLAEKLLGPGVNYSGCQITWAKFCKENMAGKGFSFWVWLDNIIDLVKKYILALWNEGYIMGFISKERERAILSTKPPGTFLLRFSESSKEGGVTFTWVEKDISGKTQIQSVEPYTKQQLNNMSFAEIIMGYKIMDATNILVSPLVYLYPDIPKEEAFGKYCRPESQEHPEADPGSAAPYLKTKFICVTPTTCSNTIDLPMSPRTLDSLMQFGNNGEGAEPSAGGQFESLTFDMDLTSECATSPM

human STAT3 = human STAT3 (human, UniProt P40763 1-770, limits assumed); test: SPR, Biacore 3000
human STAT3 (Biacore) = human STAT3 (Biacore) (human, UniProt P40763 1-770, limits assumed); test: SPR

Molecule: his-probe (H-3) biotin labeled antibody
OD450 [1]: 0.018 OD450

B1: anti-STAT3 VHH13 (SEQ ID NO:3) sdAb (VHH)
VHH: HVQLVESGGGSVQAGGSLRLSCAASGANGGRSCMGWFRQVPGKEREGVSGISTGGLITYYADSVKGRFTISQDNTKNTLYLQMNSLKPEDTAMYYCATSRFDCYRGSWFNRYMYNSWGQGTQVTVSS
Kd [2]: 126 nM

B2: anti-STAT3 VHH13 (SEQ ID NO:3) sdAb (VHH)
VHH: B1 VHH
binding result [3]: binds

The remaining lines, values ahead:

binding result (human STAT3): no binding (tested: 0-200 nM)
B3: anti-KRAS (G12D) (SEQ ID NO:2) sdAb (VHH)
VHH: EVQLVESGGGSVQTGGSLRLSCAVSGNIGSSYCMGWFRQAPGKKREAVARIVRDGATGYADYVKGRFTISRDSAKNTLYLQMNRLIPEDTAIYYCAADLPPGCLTQAIWNFGYRGQGTLVTVSS

binding result (human STAT3 (Biacore)): no binding
B4: anti-KRAS (G12D) (SEQ ID NO:2) sdAb (VHH)
VHH: B3 VHH

Source: patent US20170327598A1 (published 2017)
